Results published in IntAct's records for PubMed 21098279.

B1: "Secreted effector protein EspF(U)" (Escherichia coli O157:H7), P0DJ88 (parent)
chain: MINNVSSLFPTVNRNITAVYKKSSFSVSPQKITLNPVKISSPFSPSSSSISATTLFRAPNAHSASFHRQSTAESSLHQQLPNVRQRLIQHLAEHGIKPARSMAEHIPPAPNWPAPPPPVQNEQSRPLPDVAQRLVQHLAEHGIQPARNMAEHIPPAPNWPAPPLPVQNEQSRPLPDVAQRLVQHLAEHGIQPARSMAEHIPPAPNWPAPPPPVQNEQSRPLPDVAQRLMQHLAEHGIQPARNMAEHIPPAPNWPAPTPPVQNEQSRPLPDVAQRLMQHLAEHGIQPARNMAEHIPPAPNWPAPTPPVQNEQSRPLPDVAQRLMQHLAEHGINTSKRS
partner: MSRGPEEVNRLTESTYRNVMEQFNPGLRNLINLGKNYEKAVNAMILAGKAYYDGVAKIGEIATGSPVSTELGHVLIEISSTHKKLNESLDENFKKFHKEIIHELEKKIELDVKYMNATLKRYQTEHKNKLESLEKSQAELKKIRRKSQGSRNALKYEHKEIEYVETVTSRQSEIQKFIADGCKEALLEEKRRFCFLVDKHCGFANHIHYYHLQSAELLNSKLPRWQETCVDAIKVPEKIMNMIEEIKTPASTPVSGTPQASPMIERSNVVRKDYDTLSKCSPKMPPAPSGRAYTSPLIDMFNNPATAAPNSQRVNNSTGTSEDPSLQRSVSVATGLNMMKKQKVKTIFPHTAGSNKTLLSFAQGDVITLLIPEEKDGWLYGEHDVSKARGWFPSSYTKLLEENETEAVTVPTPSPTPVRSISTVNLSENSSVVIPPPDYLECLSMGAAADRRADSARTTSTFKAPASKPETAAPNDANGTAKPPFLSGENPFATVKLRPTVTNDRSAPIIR

Variants of: B1
Conditions: with bi2l1_human BAIAP2L1, Q9UHR4

| Variant | effect of a mutation on the interaction |
| --- | --- |
| N299A;W300A;P301A | decreasing interaction |
| N299P;W300P | decreasing interaction |
| N299G;W300G;P301G | decreasing interaction |
